According to patent publication US20230287598A1:

Biological target: Kv1.3 (human (T-cells from human blood donors)) (UniProt P22001)
Test: cell-based or functional assay

Kv1.3 (human (T-cells from human blood donors)), sequence (P22001 whole entry): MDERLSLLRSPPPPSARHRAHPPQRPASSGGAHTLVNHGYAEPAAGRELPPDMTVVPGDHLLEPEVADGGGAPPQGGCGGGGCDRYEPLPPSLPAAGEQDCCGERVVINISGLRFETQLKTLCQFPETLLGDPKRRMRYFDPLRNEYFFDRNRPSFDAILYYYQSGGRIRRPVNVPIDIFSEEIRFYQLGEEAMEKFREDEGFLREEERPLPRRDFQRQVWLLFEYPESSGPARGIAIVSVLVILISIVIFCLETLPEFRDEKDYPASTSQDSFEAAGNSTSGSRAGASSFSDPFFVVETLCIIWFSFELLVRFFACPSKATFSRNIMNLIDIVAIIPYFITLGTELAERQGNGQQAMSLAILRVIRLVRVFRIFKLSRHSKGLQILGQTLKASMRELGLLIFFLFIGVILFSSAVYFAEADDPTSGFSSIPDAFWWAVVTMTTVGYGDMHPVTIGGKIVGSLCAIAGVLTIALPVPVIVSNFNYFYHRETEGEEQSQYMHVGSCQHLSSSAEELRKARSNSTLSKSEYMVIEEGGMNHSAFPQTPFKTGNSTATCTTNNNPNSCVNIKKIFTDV

| Substance | TNF-α ELISA (A450), Donor 1, 6 nM IgG | TNF-α ELISA (A450), Donor 1, 17 nM IgG | TNF-α ELISA (A450), Donor 1, 50 nM IgG | TNF-α ELISA (A450), Donor 1, 150 nM IgG | TNF-α ELISA (A450), Donor 2, 6 nM IgG | TNF-α ELISA (A450), Donor 2, 17 nM IgG | TNF-α ELISA (A450), Donor 2, 50 nM IgG | TNF-α ELISA (A450), Donor 2, 150 nM IgG | TNF-α ELISA (A450), Donor 3, 6 nM IgG | TNF-α ELISA (A450), Donor 3, 17 nM IgG | TNF-α ELISA (A450), Donor 3, 50 nM IgG | TNF-α ELISA (A450), Donor 3, 150 nM IgG |
| --- | --- | --- | --- | --- | --- | --- | --- | --- | --- | --- | --- | --- |
| BLV1H12 GLLV 3xG4S OSK1 (K16,D20) (antibody) | 0.641 A450 | 0.698 A450 | 0.556 A450 | 0.253 A450 | 0.096 A450 | 0.094 A450 | 0.075 A450 | 0.027 A450 | 0.159 A450 | 0.144 A450 | 0.102 A450 | 0.029 A450 |
| BLV1H12 GLLV 3xG4S OSK1 (P12,K16,D20) (antibody) | 0.666 A450 | 0.651 A450 | 0.58 A450 | 0.171 A450 | 0.121 A450 | 0.108 A450 | 0.097 A450 | 0.037 A450 | 0.191 A450 | 0.168 A450 | 0.122 A450 | 0.037 A450 |
